Assay results published in patent US20250230251A1 (Bristol-Myers Squibb, published 2025).
Numbering of substitutions follows the chain as printed. Like-named read-outs stand apart in the source and are kept apart here. Blank lines part the entries; values can stand above or below the binder they belong to.

Columns and labels:
[1] = molecular target: T1, human IL-18Rβ on cells (human, UniProt O95256 20-599); assay: cell-based or functional assay
T1 sequence: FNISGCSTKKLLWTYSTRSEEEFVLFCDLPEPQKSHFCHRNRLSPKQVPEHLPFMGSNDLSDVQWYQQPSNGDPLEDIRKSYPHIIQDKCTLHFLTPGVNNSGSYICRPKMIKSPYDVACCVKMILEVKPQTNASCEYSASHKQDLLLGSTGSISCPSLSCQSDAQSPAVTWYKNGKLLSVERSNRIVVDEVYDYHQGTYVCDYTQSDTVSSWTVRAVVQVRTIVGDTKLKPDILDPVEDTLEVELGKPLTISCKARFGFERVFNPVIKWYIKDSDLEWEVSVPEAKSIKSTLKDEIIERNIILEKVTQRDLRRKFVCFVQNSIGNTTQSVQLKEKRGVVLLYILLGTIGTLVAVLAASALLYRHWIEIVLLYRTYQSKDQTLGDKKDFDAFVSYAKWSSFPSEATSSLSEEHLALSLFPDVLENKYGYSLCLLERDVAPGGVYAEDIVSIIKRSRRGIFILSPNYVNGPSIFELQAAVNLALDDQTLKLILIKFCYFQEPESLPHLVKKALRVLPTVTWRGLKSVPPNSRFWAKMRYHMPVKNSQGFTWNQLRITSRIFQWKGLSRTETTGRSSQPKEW

[2] = molecular target: T2, huIL-18Rβ-HisAvi (human, UniProt O95256 20-356, biotinylated in the Octet blocking assay); assay: SPR T200, pH 7.4; sample stored at pH 8, 4 w 4C
T2 construct: Soluble analyte in all SPR runs; captured on streptavidin sensors in the Octet assay; also called human IL-18Rβ; human IL-18Rβ-Avi-His
T2 sequence: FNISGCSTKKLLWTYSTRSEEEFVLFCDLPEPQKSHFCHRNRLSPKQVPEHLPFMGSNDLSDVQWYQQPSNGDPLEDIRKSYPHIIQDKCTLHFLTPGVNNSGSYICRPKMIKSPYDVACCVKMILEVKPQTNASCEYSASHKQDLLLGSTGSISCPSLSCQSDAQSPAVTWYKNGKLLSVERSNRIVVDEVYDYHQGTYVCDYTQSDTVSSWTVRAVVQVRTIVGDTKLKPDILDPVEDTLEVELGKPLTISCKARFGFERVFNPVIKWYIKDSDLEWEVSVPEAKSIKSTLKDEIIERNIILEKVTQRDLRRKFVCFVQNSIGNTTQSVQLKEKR

[3] = molecular target: T1, human IL-18Rβ on cells; assay: cell-based or functional assay; remark: listed apart in the source
[4] = molecular target: T1, human IL-18Rβ on cells; assay: cell-based or functional assay; remark: listed apart in the source
[5] = molecular target: T2, huIL-18Rβ-HisAvi; assay: SPR T200, pH 7.4; sample stored at pH 8, T0
[6] = molecular target: T3, cyIL-18Rβ-HisAvi (cynomolgus monkey); assay: SPR screen, 1:1 fit
T3 construct: Soluble analyte in SPR; also called cyno IL-18Rβ; cynomolgus monkey IL-18Rβ
T3 chain: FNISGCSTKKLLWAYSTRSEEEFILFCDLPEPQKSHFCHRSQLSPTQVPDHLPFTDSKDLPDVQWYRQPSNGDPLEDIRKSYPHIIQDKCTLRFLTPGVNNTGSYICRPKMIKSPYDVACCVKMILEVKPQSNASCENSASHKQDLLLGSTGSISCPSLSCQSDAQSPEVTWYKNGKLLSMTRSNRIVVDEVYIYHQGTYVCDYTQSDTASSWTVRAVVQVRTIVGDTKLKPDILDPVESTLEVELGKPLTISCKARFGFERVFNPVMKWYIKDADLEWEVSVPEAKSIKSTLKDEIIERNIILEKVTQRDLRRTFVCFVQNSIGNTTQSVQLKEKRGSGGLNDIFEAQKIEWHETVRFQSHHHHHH

[7] = molecular target: T2, huIL-18Rβ-HisAvi; assay: SPR screen, 1:1 fit
[8] = molecular target: T3, cyIL-18Rβ-HisAvi; assay: SPR T200, mAb on anti-hFc, 37C, pH 6
[9] = molecular target: T2, huIL-18Rβ-HisAvi; assay: SPR T200, mAb on anti-hFc, 37C, pH 6
[10] = molecular target: T2, huIL-18Rβ-HisAvi; assay: SPR T200, pH 5 against pH 7.4
[11] = molecular target: T2, huIL-18Rβ-HisAvi; assay: SPR T200, mAb on anti-hFc, 37C, pH 7.4
[12] = molecular target: T3, cyIL-18Rβ-HisAvi; assay: SPR T200, mAb on anti-hFc, 37C, pH 7.4
[13] = molecular target: T2, huIL-18Rβ-HisAvi; assay: SPR T200, mAb on anti-hFc, 37C, pH 7.4; remark: listed apart in the source
[14] = molecular target: T2, huIL-18Rβ-HisAvi; assay: SPR T200, pH 7.4; sample stored at pH 6, 4 w 40C
[15] = molecular target: T2, huIL-18Rβ-HisAvi; assay: SPR T200, mAb on anti-hFc, 37C, pH 5

IC50, LPS+IL-12 dependent IFNg production, human whole blood [1]: 0.7 nM
y-max, LPS+IL-12 dependent IFNg production, human whole blood [1]: 98%
apparent Kd (pooled screen) [2]: 1.5 nM
apparent koff (pooled screen) [2]: 0.00035 s⁻¹
apparent kon (pooled screen) [2]: 230000 M⁻¹ s⁻¹
IC50, LPS+IL-12 dependent IFNg production, human whole blood [3]: 1.66 nM
IC50, IL-18-induced IFNγ release, KG-1 cells [4]: 0.2 nM
apparent Kd (pooled screen) [5]: 1.6 nM
apparent koff (pooled screen) [5]: 0.00035 s⁻¹
apparent kon (pooled screen) [5]: 220000 M⁻¹ s⁻¹
Kd [6]: 3.8 nM
apparent Kd (pooled screen) [7]: 1.4 nM
Kd [8]: 1.6 nM
koff [8]: 0.00028 s⁻¹
kon [8]: 180000 M⁻¹ s⁻¹
apparent Kd (pooled screen) [9]: 0.43 nM
apparent koff (pooled screen) [9]: 0.00016 s⁻¹
apparent kon (pooled screen) [9]: 380000 M⁻¹ s⁻¹
KD ratio (KD pH 5/KD pH 7) [10]: 1.08
kd ratio (kd pH 5/kd pH 7) [10]: 0.63
apparent Kd (pooled screen) [11]: 1.8 nM
apparent koff (pooled screen) [11]: 0.00032 s⁻¹
apparent kon (pooled screen) [11]: 180000 M⁻¹ s⁻¹
Kd [12]: 1.4 nM
koff [12]: 0.00024 s⁻¹
kon [12]: 180000 M⁻¹ s⁻¹
apparent Kd (pooled screen) [13]: 0.51 nM
apparent koff (pooled screen) [13]: 0.00017 s⁻¹
apparent Kd (pooled screen) [14]: 1.3 nM
apparent koff (pooled screen) [14]: 0.00039 s⁻¹
apparent kon (pooled screen) [14]: 300000 M⁻¹ s⁻¹
apparent Kd (pooled screen) [15]: 2 nM
apparent koff (pooled screen) [15]: 0.00021 s⁻¹
apparent kon (pooled screen) [15]: 100000 M⁻¹ s⁻¹
B1: P20 (antibody, human IgG1, kappa)
heavy: QVQLQQSGPGLVKPSETLSLTCTVSGGSINNYYWSWIRQPPGKGLEWIGYIFYSGTTNYNPSLKSRVTISVDTSKNQFSLKLSSVTAADTAVYYCARDVGIAARNSYYYVMDVWGQGTTVTVSSASTKGPSVFPLAPSSKSTSGGTAALGCLVKDYFPEPVTVSWNSGALTSGVHTFPAVLQSSGLYSLSSVVTVPSSSLGTQTYICNVNHKPSNTKVDKRVEPKSCDKTHTCPPCPAPEAEGAPSVFLFPPKPKDTLMISRTPEVTCVVVDVSHEDPEVKFNWYVDGVEVHNAKTKPREEQYNSTYRVVSVLTVLHQDWLNGKEYKCKVSNKALPAPIEKTISKAKGQPREPQVYTLPPSREEMTKNQVSLTCLVKGFYPSDIAVEWESNGQPENNYKTTPPVLDSDGSFFLYSKLTVDKSRWQQGNVFSCSVMHEALHNHYTQKSLSLSPG
light: AIQLTQSPSSLSASVGDRVTITCRASQGISSALAWYQQKPGKAPKFLIYDASSLESGVPSRFSGSGSGTDFTLTISSLQPEDFATYYCQQFNSYPITFGQGTRLEIKRTVAAPSVFIFPPSDEQLKSGTASVVCLLNNFYPREAKVQWKVDNALQSGNSQESVTEQDSKDSTYSLSSTLTLSKADYEKHKVYACEVTHQGLSSPVTKSFNRGEC
notes: Human IgG

Kd [8]: 1.7 nM
koff [8]: 0.00028 s⁻¹
kon [8]: 160000 M⁻¹ s⁻¹
Kd [9]: 0.45 nM
koff [9]: 0.00015 s⁻¹
kon [9]: 340000 M⁻¹ s⁻¹
Kd [12]: 1.4 nM
koff [12]: 0.00028 s⁻¹
kon [12]: 200000 M⁻¹ s⁻¹
Kd [13]: 0.43 nM
koff [13]: 0.00015 s⁻¹
kon [13]: 340000 M⁻¹ s⁻¹
B2: P20-V1 (antibody, human IgG1, kappa, V domains shown)
VH: QVQLQESGPGLVKPSETLSLTCTVSGGSINNYYWSWIRQPPGKGLEWIGYIFYSGTTNYNPSLKSRVTISVDTSKNQFSLKLSSVTAADTAVYYCARDVGIAARNSYYYVMDVWGQGTTVTVSS
VL: AIQLTQSPSSLSASVGDRVTITCRASQGISSALAWYQQKPGKAPKFLIYEASSLESGVPSRFSGSGSGTDFTLTISSLQPEDFATYYCQQFNSYPITFGQGTRLEIKR
notes: Variant of P20

IC50, LPS+IL-12 dependent IFNg production, human whole blood [1]: 0.3 nM
y-max, LPS+IL-12 dependent IFNg production, human whole blood [1]: 98%
Kd [2]: 1.3 nM
koff [2]: 0.00034 s⁻¹
kon [2]: 270000 M⁻¹ s⁻¹
IC50, LPS+IL-12 dependent IFNg production, human whole blood [3]: 1.34 nM
IC50, IL-18-induced IFNγ release, KG-1 cells [4]: 0.7 nM
Kd [5]: 1.5 nM
koff [5]: 0.00037 s⁻¹
kon [5]: 250000 M⁻¹ s⁻¹
Kd [6]: 18 nM
Kd [7]: 1.4 nM
Kd [8]: 11 nM
koff [8]: 0.002 s⁻¹
kon [8]: 180000 M⁻¹ s⁻¹
Kd [9]: 0.65 nM
koff [9]: 0.00031 s⁻¹
kon [9]: 480000 M⁻¹ s⁻¹
KD ratio (KD pH 5/KD pH 7) [10]: 1.09
kd ratio (kd pH 5/kd pH 7) [10]: 0.79
Kd [11]: 2.3 nM
koff [11]: 0.0005 s⁻¹
kon [11]: 220000 M⁻¹ s⁻¹
Kd [12]: 19 nM
koff [12]: 0.0029 s⁻¹
kon [12]: 150000 M⁻¹ s⁻¹
Kd [13]: 1.8 nM
koff [13]: 0.00043 s⁻¹
kon [13]: 240000 M⁻¹ s⁻¹
Kd [14]: 5.6 nM
koff [14]: 0.0013 s⁻¹
kon [14]: 230000 M⁻¹ s⁻¹
Kd [15]: 2.5 nM
koff [15]: 0.0004 s⁻¹
kon [15]: 160000 M⁻¹ s⁻¹
B3: P21 (antibody, human IgG1, kappa, V domains shown)
VH: QVQLQQSGPGLVKPSETLSLTCTVSGGSISNYYWTWIRQPPGKGLEWIGYISDSGSTNYNPSLKSRVTISVDTSKNQFSLKLSSVTAADTAVYYCARETIVVRGFYFYVMDVWGQGTTVTVSS
VL: B2 VL with K39R, F46L, E50D, S53N, L54W, I96W, R103K, L104V
notes: Human IgG
